One experiment has as its target murine CD1d (mouse) (UniProt P11609). Kind of experiment: flow cytometry on mouse thymocytes, K-S statistics.
The next experiment concerns the target murine CD1a (mouse). The experiment is described as follows: flow cytometry on mouse thymocytes, K-S statistics.

Chain of murine CD1d (mouse) (P11609 22-336): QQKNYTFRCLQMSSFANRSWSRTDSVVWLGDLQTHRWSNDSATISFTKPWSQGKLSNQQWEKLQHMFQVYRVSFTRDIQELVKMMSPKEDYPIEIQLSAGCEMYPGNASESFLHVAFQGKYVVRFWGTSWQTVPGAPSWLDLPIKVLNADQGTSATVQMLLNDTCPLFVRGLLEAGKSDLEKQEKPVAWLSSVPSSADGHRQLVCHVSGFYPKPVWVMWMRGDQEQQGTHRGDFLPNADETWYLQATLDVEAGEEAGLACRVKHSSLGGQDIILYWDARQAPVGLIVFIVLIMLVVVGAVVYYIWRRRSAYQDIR

Regarding “Positive control (mouse anti-human CD1a-FITC) (antibody)”, the D-value with murine CD1d (mouse) and with murine CD1a (mouse) was 0.03 each time.

Values taken from US20060257397A1.
